Tests used:
[1] = biological target: Plasmodium falciparum P2 (PfP2), recombinant histidine-tagged full length protein (Plasmodium falciparum) (UniProt O00806); assay: multi-angle light scattering; PfP2 250 to 400 µM, freshly prepared sample, HELEOS 8 Wyatt instrument, BSA as standard
[2] = biological target: Plasmodium falciparum P2 (PfP2), recombinant histidine-tagged full length protein (Plasmodium falciparum) (UniProt O00806); assay: dynamic light scattering; PfP2 40 to 180 µM in Tris buffer, pH 7.5, 25°C, freshly prepared samples; size from a calibration of hydrodynamic diameter against molecular weight

**Q.** “Plasmodium falciparum P2 (PfP2), recombinant histidine-tagged full length protein (from UniProt O00806 1-112) (natural protein)” was tested. Which stoichiometry N [1] did it give?
**A.** 7 to 8

**Q.** And the stoichiometry N [2]?
**A.** 8 to 9
